Results published in paper PMC9897667 (2023).

Experiments:
[1] = biological target: extracellular domain of human RAGE (residues 1 to 344) (human, UniProt Q15109 23-344); assay: SPR
[2] = biological target: human TLR4 (ECD-His Tag, residues 1 to 631) (human, UniProt O00206 24-631); assay: SPR
Sequence of human TLR4 (ECD-His Tag, residues 1 to 631) (O00206 24-631): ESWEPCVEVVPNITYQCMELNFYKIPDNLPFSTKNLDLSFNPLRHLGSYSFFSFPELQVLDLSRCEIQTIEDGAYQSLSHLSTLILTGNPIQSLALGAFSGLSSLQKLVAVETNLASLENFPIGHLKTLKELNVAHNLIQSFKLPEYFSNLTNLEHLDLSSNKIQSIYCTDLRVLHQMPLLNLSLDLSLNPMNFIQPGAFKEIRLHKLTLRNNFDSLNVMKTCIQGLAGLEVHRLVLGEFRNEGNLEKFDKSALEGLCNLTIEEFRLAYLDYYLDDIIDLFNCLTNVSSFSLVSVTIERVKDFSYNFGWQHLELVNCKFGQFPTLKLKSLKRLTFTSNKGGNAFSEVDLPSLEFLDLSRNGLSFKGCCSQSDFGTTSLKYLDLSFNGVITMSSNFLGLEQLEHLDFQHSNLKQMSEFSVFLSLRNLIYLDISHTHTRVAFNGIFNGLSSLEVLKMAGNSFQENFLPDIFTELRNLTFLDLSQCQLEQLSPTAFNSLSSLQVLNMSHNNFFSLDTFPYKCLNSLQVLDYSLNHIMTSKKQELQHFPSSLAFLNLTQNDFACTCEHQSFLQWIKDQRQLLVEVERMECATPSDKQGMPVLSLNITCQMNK

Sequence of extracellular domain of human RAGE (residues 1 to 344) (Q15109 23-344): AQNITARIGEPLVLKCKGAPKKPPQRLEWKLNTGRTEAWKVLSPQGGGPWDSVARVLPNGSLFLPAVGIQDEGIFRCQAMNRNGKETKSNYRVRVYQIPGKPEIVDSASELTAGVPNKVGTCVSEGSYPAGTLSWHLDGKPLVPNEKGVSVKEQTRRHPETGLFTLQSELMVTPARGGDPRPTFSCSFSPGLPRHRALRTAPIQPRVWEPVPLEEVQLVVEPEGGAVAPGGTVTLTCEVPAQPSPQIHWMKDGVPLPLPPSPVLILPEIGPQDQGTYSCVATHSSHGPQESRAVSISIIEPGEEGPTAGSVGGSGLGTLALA

Kd [1]: 2.7 nM | Kd [2]: 18 nM
B1: recombinant human procathepsin L (pCTS-L) (natural protein)
chain: TLTFDHSLEAQWTKWKAMHNRLYGMNEEGWRRAVWEKNMKMIELHNQEYREGKHSFTMAMNAFGDMTSEEFRQVMNGFQNRKPRKGKVFQEPLFYEAPRSVDWREKGYVTPVKNQGQCGSCWAFSATGALEGQMFRKTGRLISLSEQNLVDCSGPQGNEGCNGGLMDYAFQYVQDNGGLDSEESYPYEATEESCKYNPKYSVANDTGFVDIPKQEKALMKAVATVGPISVAIDAGHESFLFYKEGIYFEPDCSSEDMDHGVLVVGYGFESTESDNNKYWLVKNSWGEEWGMGGYVKMAKDRRNHCGIASAASYPTV
